{"source": "patent US20090203616A1", "binders": {"B1": {"name": "RgIA-Cys-amide (peptide)", "peptide": "GCCSDPRCRYRC", "modifications": "not fully specified (C-terminus); ends and bridges not checked"}}, "target": "α9α10 subtype of the nicotinic acetylcholine receptor (nAChR) (rat) (UniProt P43144)", "sequence (P43144 26-479, chain 1 of 2)": "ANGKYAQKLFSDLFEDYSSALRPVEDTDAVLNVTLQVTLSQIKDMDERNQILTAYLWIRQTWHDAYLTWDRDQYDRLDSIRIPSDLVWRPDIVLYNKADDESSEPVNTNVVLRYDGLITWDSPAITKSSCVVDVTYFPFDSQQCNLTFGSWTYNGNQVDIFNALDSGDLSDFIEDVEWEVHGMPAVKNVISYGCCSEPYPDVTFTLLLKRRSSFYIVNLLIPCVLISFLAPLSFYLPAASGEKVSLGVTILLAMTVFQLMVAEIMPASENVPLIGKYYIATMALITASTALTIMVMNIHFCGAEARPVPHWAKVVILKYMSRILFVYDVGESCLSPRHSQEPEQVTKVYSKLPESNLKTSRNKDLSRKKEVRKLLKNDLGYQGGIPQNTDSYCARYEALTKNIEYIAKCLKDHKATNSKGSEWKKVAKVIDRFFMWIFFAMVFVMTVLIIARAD", "sequence (Q9JLB5 25-447, chain 2 of 2, further chain)": "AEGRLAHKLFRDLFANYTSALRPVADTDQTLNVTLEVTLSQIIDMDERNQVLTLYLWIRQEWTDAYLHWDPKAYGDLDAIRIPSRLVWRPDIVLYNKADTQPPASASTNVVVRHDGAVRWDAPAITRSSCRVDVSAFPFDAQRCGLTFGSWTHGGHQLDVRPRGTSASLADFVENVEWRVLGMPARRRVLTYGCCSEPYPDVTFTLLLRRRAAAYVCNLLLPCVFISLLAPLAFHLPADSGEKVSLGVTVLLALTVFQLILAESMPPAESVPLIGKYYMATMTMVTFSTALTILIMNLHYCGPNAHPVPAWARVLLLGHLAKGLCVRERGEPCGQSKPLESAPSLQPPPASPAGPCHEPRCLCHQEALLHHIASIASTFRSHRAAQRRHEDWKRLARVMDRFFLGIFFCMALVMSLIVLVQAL", "assay": "cell-based or functional assay", "note": "No end group written: not given here."}
{"binder": "B1", "values": [{"measurement": "IC50 (activity on α9α10 nAChR, oocytes as in Example 1)", "result": 7.8, "unit": "nM"}]}
